Test results taken from US5759768A, “Assays for factors affecting circularization of DNA, assays for factors affecting DNA integration, factors, and uses thereof” (priority 1995, dated 1998).

Experiments:
Format in all cases: biochemical, HIV-1
[1] = tested on: purified linear viral DNA; assay: Ligation of purified linear viral DNA by phage T4 DNA ligase and Klenow fragment; conditions: T4 DNA ligase alone
Experimental: Linear viral DNA was purified from cytoplasmic extracts of cells 4 hours post-infection as described above. In FIG. 22, a purified linear viral DNA was added to cytoplasmic extracts from uninfected SupT1 cells and incubated at 37° C. for 45 minutes. The uninfected SupT1 cells used for the preparation of extracts were either untreated (lanes 3-11) or cultured in the presence of 10 ng/ml phorbol 12-myristate 13-acetate for six hours prior to extraction (lane 2). […] Lanes 2-11: reaction products following incubation of purified linear viral DNA in uninfected extracts containing 1 mM ATP (lanes 2 and 3), nothing added (lane 4), 1 mM dATP (lane 5), 1 mM UTP (lane 6), 1 mM CTP (lane 7), 1 mM GTP (lane 8), 1 mM ATPγS (lane 9), or 1 mM ADP (lane 10). Lane 11: uninfected SupT1 cell extract was treated with proteinase K for 10 minutes at 37° C., then linear viral DNA was added and incubation continued for 45 minutes. In FIG. 23, lanes 1, 2, 4 and 5: purified linear viral DNA was incubated with T4 DNA ligase (lane 1), T4 polynucleotide kinase and T4 DNA ligase (lane 2), Klenow fragment of E. coli DNA polymerase I and T4 DNA ligase (lane 3), or Klenow fragment, T4 polynucleotide kinase, and T4 DNA ligase (lane 4). Lanes 3 and 6: in vitro circularization reaction products generated in cell extracts, included as size standards. […]

[2] = tested on: viral DNA integrated into .phi.X174 target DNA; conditions: for Relative activity, % of standard: pretreatment/37° C./30 min, target DNA 10 μg/ml
Experimental: (§1) The chronically HIV-1 infected Molt IIIB human T cell line (HTLV IIIB virus strain) was the source of virus for cell-free infections. This human T cell line constitutively produces a low level of the HTLV-111B strain of HIV-1. Culture supernatant containing a high concentration of virus was prepared by incubating 300×10^6 Molt IIIB cells in 50 ml fresh RPMI 1640 medium containing 20% fetal calf serum and 10 ng of phorbol 12-myristate 13-acetate per ml for 20-24 hours. […] Cytoplasmic extracts (3 ml) were prepared 4-4.5 hours post-infection, by a modification of the procedure of Brown et al., Cell 49: 342-356 (1987).
(§2) At specified times after infection, cells were washed twice with buffer K (20 mM Hepes, pH 7.4, 150 mM KCl, 5 mM MgCl2, 1 mM dithiothreitol, […]) and then lysed at a concentration of 33×10^6 cells per ml in the same buffer containing 0.025% digitonin or 0.025% Triton X-100. Cells were extracted for 10 minutes at room temperature, and the lysate was centrifuged at 1000×g for 3 minutes, and is referred to as "cytoplasmic extract". Cytoplasmic extract was the source of viral DNA for analyses in the assays described below. The pellet from the initial low-speed centrifugation contained cell debris and intact nuclei and is called the "nuclear pellet". Cell extracts from uninfected SupT1 cells were prepared in the same manner.
DNA samples were layered on 0.8% agarose gels and electrophoresed at 1 V/cm for 15 hour in Tris/acetate/EDTA buffer. After electrophoresis, DNA was blotted by capillary action onto nitrocellulose (0.45 μm, Schleicher & Schuell). […]
Cytoplasmic extracts prepared from SupT1 cells 4 hours after infection with HIV-1 were incubated with exogenously added target DNA under integration reaction conditions. Products of the reactions were analyzed by Southern blot hybridization. The time course of integration into linear .phi.X174 DNA target was determined. […] Integration was detected by the shift of linear viral DNA on Southern blots from the characteristic 9.7-kilobase (kb) position to a position corresponding to viral DNA plus target DNA.

preintegration complexes = assay: Circularization mediated by partially purified preintegration complexes; conditions: pretreatment of uninfected SupT1 extracts
Experimental: Viral preintegration complexes were partially purified from cytoplasmic extracts by Sephacryl S400 gel filtration chromatography. Cytoplasmic extracts (0.8 ml) were loaded onto a 22-ml Sephacryl S400 (Pharmacia) column, 28 cm in height, equilibrated in buffer K containing 0.5% Triton X-100 at 4° C. Fractions (0.5 ml) were collected at a flow rate of approximately 0.2 ml/min.
The linear viral DNA present in cytoplasmic extracts is a part of the nucleoprotein preintegration complex that can be separated from the bulk of cellular proteins by gel filtration chromatography [Farnet and Haseltine, J. Virol., 65: 1910-1915 (1991)]. Preintegration complexes were partially purified by Sephacryl S400 column chromatography and tested for the ability to mediate the circularization of viral DNA. Cytoplasmic extracts (1 ml, vol) were fractionated by Sephacryl S-400 gel filtration chromatography as previously described. The void volume fractions of the column, containing the peak of viral DNA, were pooled (total volume, 1.5 ml) and incubated as follows with the results shown in FIG. 20. […]

[3] = tested on: linear viral DNA (circularization); conditions: pretreatment for 30 minutes prior to addition of ATP
Experimental: as §1
as §2, with “The pellet from the initial low-speed centrifugation contained cell debris and intact nuclei and is called the "nuclear pellet". Cell extracts from uninfected SupT1 cells were prepared in the same manner.” left out
Cell extracts were prepared from cells four to five hours after infection with HIV-1, using the above-described methods to yield fully functional viral preintegration complexes. […] Therefore, only LTR-containing DNA fragments are detected. […]

Molecule | ligation of the ends of linear viral DNA [1] | Relative activity, % of standard [2] | integration in vitro ([2]; pretreatment of extracts prior to incubation with target DNA) | ability of uninfected extracts to restore 1-LTR and simple 2-LTR circle formation (preintegration complexes) | circle formation [3]
T4 DNA ligase: phage T4 ligase (protein, UniProt P00970 1-487, looked up) DNA ligase: MILKILNEIASIGSTKQKQAILEKNKDNELLKRVYRLTYSRGLQYYIKKWPKPGIATQSFGMLTLTDMLDFIEFTLATRKLTGNAAIEELTGYITDGKKDDVEVLRRVMMRDLECGASVSIANKVWPGLIPEQPQMLASSYDEKGINKNIKFPAFAQLKADGARCFAEVRGDELDDVRLLSRAGNEYLGLDLLKEELIKMTAEARQIHPEGVLIDGELVYHEQVKKEPEGLDFLFDAYPENSKAKEFAEVAESRTASNGIANKSLKGTISEKEAQCMKFQVWDYVPLVEIYSLPAFRLKYDVRFSKLEQMTSGYDKVILIENQVVNNLDEAKVIYKKYIDQGLEGIILKNIDGLWENARSKNLYKFKEVIDVDLKIVGIYPHRKDPTKAGGFILESECGKIKVNAGSGLKDKAGVKSHELDRTRIMENQNYYIGKILECECNGWLKSDGRTDYVKLFLPIAIRLREDKTKANTFEDVFGDFHEVTGL | unable to ligate the ends of the linear DNA molecules |  |  |  | 
RNase A: RNase A (protein, UniProt P61823 27-150, looked up) Ribonuclease pancreatic: KETAAAKFERQHMDSSTSAASSSNYCNQMMKSRNLTKDRCKPVNTFVHESLADVQAVCSQKNVACKNGQTNCYQSYSTMSITDCRETGSSKYPNCAYKTTQANKHIIVACEGNPYVPVHFDASV |  | 100 % of standard |  |  | 
Proteinase K: an enzyme such as proteinase K (protein, UniProt P06873 106-384, looked up) Proteinase K: AAQTNAPWGLARISSTSPGTSTYYYDESAGQGSCVYVIDTGIEASHPEFEGRAQMVKTYYYSSRDGNGHGTHCAGTVGSRTYGVAKKTQLFGVKVLDDNGSGQYSTIIAGMDFVASDKNNRNCPKGVVASLSLGGGYSSSVNSAAARLQSSGVMVAVAAGNNNADARNYSPASEPSVCTVGASDRYDRRSSFSNYGSVLDIFGPGTSILSTWIGGSTRSISGTSMATPHVAGLAAYLMTLGKTTAASACRYIADTANKGDLSNIPFGTVNLLAYNNYQA |  | 0 % of standard | abolished integration in vitro | abolished the ability of the extracts to restore 1-LTR and simple 2-LTR circle formation | abolished circle formation
